According to US20260125472A1 (HEFEI TG IMMUNOPHARMA, published 2026):

B1: Cross3ZH07 (antibody, human IgG1, kappa, V domains shown)
VH: EVQLLESGGGLVQPGGSLKLSCAASGFTFNTYAMNWVRQAPGKGLEWVARIRSKYNNYATYYADSVKDRFTISRDDSKNTAYLQMNNLKTEDTAVYYCVRHGMFGNSYVSWFAYWGQGTLVTVSS
VL: ELVVTQEPSLTVSPGGTVTLTCRSSTGAVTTSNYANWVQQKPGQAPRGLIGGTNKRAPGTPARFSGSLLGGKAALTLSGVQPEDEAEYYCALWYPNPWVFGGGTKLTVLR
B2: Cross3ZH09 (antibody, human IgG1, kappa, V domains shown)
VH: EVQLLESGGGLVQPGGSLKLSCAASGFTFNTYAMNWVRQAPGKGLEWVARIRSKYNNYATYYADSVKDRFTISRDDSKNTAYLQMNNLKTEDTAVYYCVRHGNFGNSYVSWFLYWGQGTLVTVSS
VL: ELVVTQEPSLTVSPGGTVTLTCRSSTGAVTTSNYANWVQQKPGQAPRGLIGGTNKRAPGTPARFSGSLLGGKAALTLSGVQPEDEAEYYCALWYPNPWVFGGGTKLTVLR
B3: Cross3ZH16 (antibody, human IgG1, kappa, V domains shown)
VH: EVQLLESGGGLVQPGGSLKLSCAASGFTFNTYAMNWVRQAPGKGLEWVARIRSKYNNYATYYADSVKDRFTISRDDSKNTAYLQMNNLKTEDTAVYYCVRHGNFGNSYVSWFAYWGQGTLVTVSS
VL: ELVVTQEPSLTVSPGGTVTLTCRSSTGAVTTSNYANWVQQKPGQAPRGLIGGTNKRAPGTPARFSGSLLGGKAALTLSGVQPEDEAEYYCALWYPNDWVFGGGTKLTVLR
B4: Cross3ZH23 (antibody, human IgG1, kappa, V domains shown)
VH: EVQLLESGGGLVQPGGSLKLSCAASGFTFNTYAMNWVRQAPGKGLEWVARIRSKYNNYATYYADSVKDRFTISRDDSKNTAYLQMNNLKTEDTAVYYCVRHGNFGNDYVSWFAYWGQGTLVTVSS
VL: ELVVTQEPSLTVSPGGTVTLTCRSSTGAVTTSNYANWVQQKPGQAPRGLIGGTNKRAPGTPARFSGSLLGGKAALTLSGVQPEDEAEYYCALWYSNPWVFGGGTKLTVLR
B5: Cross3×Trop2 (bispecific antibody)
scFv: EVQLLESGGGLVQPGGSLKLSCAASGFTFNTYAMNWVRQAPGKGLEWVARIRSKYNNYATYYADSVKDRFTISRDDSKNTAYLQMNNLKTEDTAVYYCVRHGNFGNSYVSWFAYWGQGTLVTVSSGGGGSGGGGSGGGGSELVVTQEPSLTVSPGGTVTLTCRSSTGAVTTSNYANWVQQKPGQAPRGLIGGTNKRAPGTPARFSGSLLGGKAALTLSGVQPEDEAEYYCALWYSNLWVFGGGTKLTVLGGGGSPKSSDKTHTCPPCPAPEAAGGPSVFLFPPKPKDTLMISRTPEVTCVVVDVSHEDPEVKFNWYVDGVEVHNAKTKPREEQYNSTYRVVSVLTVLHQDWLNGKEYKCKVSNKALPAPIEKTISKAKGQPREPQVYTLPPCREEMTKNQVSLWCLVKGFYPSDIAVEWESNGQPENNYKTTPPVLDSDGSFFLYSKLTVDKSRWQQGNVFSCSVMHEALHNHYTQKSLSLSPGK
heavy: QVQLQQSGSELKKPGASVKVSCKASGYTFTNYGMNWVKQAPGQGLKWMGWINTYTGEPTYTDDFKGRFAFSLDTSVSTAYLQISSLKADDTAVYFCARGGFGSSYWYFDVWGQGSLVTVSSASTKGPSVFPLAPSSKSTSGGTAALGCLVKDYFPEPVTVSWNSGALTSGVHTFPAVLQSSGLYSLSSVVTVPSSSLGTQTYICNVNHKPSNTKVDKKVEPKSSDKTHTCPPCPAPEAAGGPSVFLFPPKPKDTLMISRTPEVTCVVVDVSHEDPEVKFNWYVDGVEVHNAKTKPREEQYNSTYRVVSVLTVLHQDWLNGKEYKCKVSNKALPAPIEKTISKAKGQPREPQVCTLPPSREEMTKNQVSLSCAVKGFYPSDIAVEWESNGQPENNYKTTPPVLDSDGSFFLVSKLTVDKSRWQQGNVFSCSVMHEALHNHYTQKSLSLSPGK
light: DIQLTQSPSSLSASVGDRVSITCKASQDVSIAVAWYQQKPGKAPKLLIYSASYRYTGVPDRFSGSGSGTDFTLTISSLQPEDFAVYYCQQHYITPLTFGAGTKVEIKRTVAAPSVFIFPPSDEQLKSGTASVVCLLNNFYPREAKVQWKVDNALQSGNSQESVTEQDSKDSTYSLSSTLTLSKADYEKHKVYACEVTHQGLSSPVTKSFNRGEC
notes: also called parental Cross3×Trop2 bispecific antibody
B6: Cross303×Trop2 (bispecific antibody)
scFv: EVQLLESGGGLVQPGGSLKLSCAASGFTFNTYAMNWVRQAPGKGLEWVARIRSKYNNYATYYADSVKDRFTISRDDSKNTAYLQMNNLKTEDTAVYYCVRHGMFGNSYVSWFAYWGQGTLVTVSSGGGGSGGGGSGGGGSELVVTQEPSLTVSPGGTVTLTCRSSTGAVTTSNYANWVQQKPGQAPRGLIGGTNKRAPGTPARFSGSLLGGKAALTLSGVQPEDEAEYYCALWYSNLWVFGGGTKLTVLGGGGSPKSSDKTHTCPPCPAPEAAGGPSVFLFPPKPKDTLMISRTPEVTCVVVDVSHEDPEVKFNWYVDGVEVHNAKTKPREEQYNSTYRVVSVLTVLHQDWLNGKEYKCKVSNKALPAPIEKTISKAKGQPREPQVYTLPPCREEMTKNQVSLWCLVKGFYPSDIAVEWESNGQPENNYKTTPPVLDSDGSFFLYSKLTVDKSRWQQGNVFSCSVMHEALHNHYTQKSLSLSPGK
heavy: QVQLQQSGSELKKPGASVKVSCKASGYTFTNYGMNWVKQAPGQGLKWMGWINTYTGEPTYTDDFKGRFAFSLDTSVSTAYLQISSLKADDTAVYFCARGGFGSSYWYFDVWGQGSLVTVSSASTKGPSVFPLAPSSKSTSGGTAALGCLVKDYFPEPVTVSWNSGALTSGVHTFPAVLQSSGLYSLSSVVTVPSSSLGTQTYICNVNHKPSNTKVDKKVEPKSSDKTHTCPPCPAPEAAGGPSVFLFPPKPKDTLMISRTPEVTCVVVDVSHEDPEVKFNWYVDGVEVHNAKTKPREEQYNSTYRVVSVLTVLHQDWLNGKEYKCKVSNKALPAPIEKTISKAKGQPREPQVCTLPPSREEMTKNQVSLSCAVKGFYPSDIAVEWESNGQPENNYKTTPPVLDSDGSFFLVSKLTVDKSRWQQGNVFSCSVMHEALHNHYTQKSLSLSPGK
light: DIQLTQSPSSLSASVGDRVSITCKASQDVSIAVAWYQQKPGKAPKLLIYSASYRYTGVPDRFSGSGSGTDFTLTISSLQPEDFAVYYCQQHYITPLTFGAGTKVEIKRTVAAPSVFIFPPSDEQLKSGTASVVCLLNNFYPREAKVQWKVDNALQSGNSQESVTEQDSKDSTYSLSSTLTLSKADYEKHKVYACEVTHQGLSSPVTKSFNRGEC
B7: Cross307×Trop2 (bispecific antibody)
scFv: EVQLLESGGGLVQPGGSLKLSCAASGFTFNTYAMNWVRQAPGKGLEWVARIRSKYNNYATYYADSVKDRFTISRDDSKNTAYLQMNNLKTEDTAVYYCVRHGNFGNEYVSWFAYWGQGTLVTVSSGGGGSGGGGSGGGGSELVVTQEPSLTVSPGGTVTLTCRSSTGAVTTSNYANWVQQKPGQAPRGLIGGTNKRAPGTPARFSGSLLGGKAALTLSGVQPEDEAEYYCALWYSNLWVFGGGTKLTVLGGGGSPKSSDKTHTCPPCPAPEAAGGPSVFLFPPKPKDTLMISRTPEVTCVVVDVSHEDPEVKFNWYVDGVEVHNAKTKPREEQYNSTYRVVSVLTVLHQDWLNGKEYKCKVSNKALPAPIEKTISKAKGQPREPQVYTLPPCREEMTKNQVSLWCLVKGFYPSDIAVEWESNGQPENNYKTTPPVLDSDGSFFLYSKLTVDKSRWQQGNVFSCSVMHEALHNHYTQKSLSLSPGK
heavy: QVQLQQSGSELKKPGASVKVSCKASGYTFTNYGMNWVKQAPGQGLKWMGWINTYTGEPTYTDDFKGRFAFSLDTSVSTAYLQISSLKADDTAVYFCARGGFGSSYWYFDVWGQGSLVTVSSASTKGPSVFPLAPSSKSTSGGTAALGCLVKDYFPEPVTVSWNSGALTSGVHTFPAVLQSSGLYSLSSVVTVPSSSLGTQTYICNVNHKPSNTKVDKKVEPKSSDKTHTCPPCPAPEAAGGPSVFLFPPKPKDTLMISRTPEVTCVVVDVSHEDPEVKFNWYVDGVEVHNAKTKPREEQYNSTYRVVSVLTVLHQDWLNGKEYKCKVSNKALPAPIEKTISKAKGQPREPQVCTLPPSREEMTKNQVSLSCAVKGFYPSDIAVEWESNGQPENNYKTTPPVLDSDGSFFLVSKLTVDKSRWQQGNVFSCSVMHEALHNHYTQKSLSLSPGK
light: DIQLTQSPSSLSASVGDRVSITCKASQDVSIAVAWYQQKPGKAPKLLIYSASYRYTGVPDRFSGSGSGTDFTLTISSLQPEDFAVYYCQQHYITPLTFGAGTKVEIKRTVAAPSVFIFPPSDEQLKSGTASVVCLLNNFYPREAKVQWKVDNALQSGNSQESVTEQDSKDSTYSLSSTLTLSKADYEKHKVYACEVTHQGLSSPVTKSFNRGEC

Experiments:
CD3E&D protein = biological target: T1, CD3E&D protein (UniProt P04234 22-105); test: SPR (Biacore 8K), antibody on CM5 chip, CD3 E&D antigen as analyte; design: Fold change: reference not given here
T1 construct: Purchased from Acro; also called CD3 E&D antigens; CD3E&D antigen protein
Method: In a Biacore 8K (Cytiva) system, the antibody was diluted to 10 μg/mL in HBS-EP running buffer and coupled to a CM5 chip (Cytiva) at a flow rate of 10 μL/min.

Trop2 protein = biological target: T2, Trop2 protein (UniProt P09758 27-274); test: ELISA, coated Trop2 protein, OD450
T2 construct: Bought recombinant protein; also called Trop2-Biotin protein (biotin-labelled, bridging ELISA)
T2 sequence (looked up): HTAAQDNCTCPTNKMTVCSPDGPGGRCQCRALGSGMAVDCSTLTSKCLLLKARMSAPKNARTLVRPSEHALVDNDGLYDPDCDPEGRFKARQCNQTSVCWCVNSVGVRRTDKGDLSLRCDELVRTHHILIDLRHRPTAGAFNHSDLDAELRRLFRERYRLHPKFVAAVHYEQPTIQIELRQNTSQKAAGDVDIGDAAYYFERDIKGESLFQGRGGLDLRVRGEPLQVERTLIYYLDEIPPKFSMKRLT
From the text: In this example, the binding properties of the CD3×Trop2 and CD3×PDL1 bispecific antibody (the production method and the amino acid sequences of the heavy and light chains were shown in Example 1) were detected by using ELISA. The CD3E&D, Trop2, or PDL1 protein was coated onto 96-well plates by inventors, and the strength of the signal after the addition of the antibody was used to determine the binding properties of the antibody and the corresponding protein.
(2) Trop2 protein (purchased from Acro) was diluted to 2 μg/ml with PBS buffer, added to a 96-well plate at a volume of 100 μL/well, and placed at 4° C. overnight. The PBS buffer in the 96-well plate was aspirated, and the plate was washed 6 times with PBST (pH 7.2 PBS containing 0.1% Tween 20) buffer. Then, 200 μL/well PBS/10% BSA was added and incubated at 37° C. for 2 h for blocking. The blocking solution was removed, and the plate was washed six times with PBST. Then, the to-be-tested bispecific antibodies, Cross3×Trop2, Cross303×Trop2, Cross307×Trop2, Cross308×Trop2, Cross309×Trop2, Cross310×Trop2, Cross311×Trop2, Cross312×Trop2, Cross313×Trop2, Cross314×Trop2, Cross316×Trop2, Cross317×Trop2, Cross318×Trop2, Cross323×Trop2, Cross325×Trop2, Cross326×Trop2, and control IgG1LALA (purchased from Bio-Tech), serially diluted with PBST/0.05% BSA, were added at 100 μL/well and incubated at 37° C. for 1 h. The reaction system was removed, and the plate was washed 6 times with PBST. Then, HRP (horseradish peroxidase)-labeled anti-human secondary antibody (Fab specific) (purchased from Sigma) diluted with PBST/0.05% BSA at 100 μL/well. After the plate was washed six times with PBST, TMB (tetramethylbenzidine) was added at 80 μL/well, and incubated at room temperature for 3 min. 4 M sulfuric acid was added at 80 μL/well to terminate the reaction. The absorbance was read at 450 nm using a microplate reader.

[1] = biological target: T3, Trop2 on A-375-Trop2 melanoma cells (UniProt P09758 27-323, limits assumed); test: flow cytometry, A-375-Trop2 cells, MFI [panel B]
T3 construct: whole, on cells
T3 sequence (looked up): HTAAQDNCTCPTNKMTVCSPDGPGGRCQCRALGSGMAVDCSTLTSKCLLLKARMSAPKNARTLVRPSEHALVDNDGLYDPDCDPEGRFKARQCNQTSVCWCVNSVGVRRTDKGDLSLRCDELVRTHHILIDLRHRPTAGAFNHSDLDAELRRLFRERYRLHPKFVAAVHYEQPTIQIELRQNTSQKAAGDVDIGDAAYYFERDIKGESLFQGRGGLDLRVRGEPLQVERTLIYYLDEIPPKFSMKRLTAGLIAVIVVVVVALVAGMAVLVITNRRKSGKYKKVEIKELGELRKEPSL
Method: (2) The tumor cells were diluted to 2×10⁶/ml with PBS and added to a 1.5 ml EP tube at a volume of 100 μl/tube, and goat serum was added thereto at 10 μl/tube. The cells were blocked at 4° C. for 30 min. The serially diluted bispecific antibodies, Cross3×Trop2, Cross303×Trop2, Cross307×Trop2, Cross308×Trop2, Cross309×Trop2, Cross310×Trop2, Cross311×Trop2, Cross312×Trop2, Cross313×Trop2, Cross314×Trop2, Cross316×Trop2, Cross317×Trop2, Cross318×Trop2, Cross323×Trop2, Cross325×Trop2, Cross326×Trop2, and Cross3×PDL1, Cross303×PDL1, Cross307×PDL1, Cross308×PDL1, Cross309×PDL1, Cross310×PDL1, Cross311×PDL1, Cross312×PDL1, Cross313×PDL1, Cross314×PDL1, Cross316×PDL1, Cross317×PDL1, Cross318×PDL1, Cross323×PDL1, Cross325×PDL1, Cross326×PDL1, and control hIgG1LALA (purchased from Bio-Tech) were added and incubated at 4° C. for 30 min. 1 ml of PBS was added to the EP tube, followed by centrifugation at 3500 rpm for 5 min at 4° C. The supernatant was discarded, and the cells were washed again with PBS. After centrifugation, the supernatant was completely discarded, and the cells were resuspended with PBS at 100 μl/tube. Alexa-647-labeled goat anti-human IgG secondary antibody (purchased from Jackson lab) was added at 1 μl/tube and incubated at 4° C. in the dark for 30 min. The cells were washed twice with PBS, and the supernatant was completely discarded after centrifugation. The cells were resuspended with PBS at 200 μl/tube and assay was performed using the flow cytometry.

T1 sequence (chain, as listed by the source limits assumed, chain 1 of 2): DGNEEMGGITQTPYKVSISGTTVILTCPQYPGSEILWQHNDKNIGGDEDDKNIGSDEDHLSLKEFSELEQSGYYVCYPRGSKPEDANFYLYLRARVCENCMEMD
T1 sequence (P04234 22-105 limits assumed, chain 2 of 2): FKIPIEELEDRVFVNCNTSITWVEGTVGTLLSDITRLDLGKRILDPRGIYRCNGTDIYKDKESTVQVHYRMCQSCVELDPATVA

Row | Binder | Fold change (CD3E&D protein) | Kd (CD3E&D protein) | koff (CD3E&D protein) | kon (CD3E&D protein) | EC50 (read off the curve) (Trop2 protein) | EC50 (read off the curve) [1]
1 | B1 | 69.1 | 11.4 nM | 0.00138 s⁻¹ | 121000 M⁻¹ s⁻¹ | – | –
2 | B2 | 636 | 105 nM | 0.00296 s⁻¹ | 28100 M⁻¹ s⁻¹ | – | –
3 | B3 | 105 | 17.3 nM | 0.0243 s⁻¹ | 1.41e+06 M⁻¹ s⁻¹ | – | –
4 | B4 | 4090 | 675 nM | 0.055 s⁻¹ | 81500 M⁻¹ s⁻¹ | – | –
5 | B5 | – | – | – | – | ~0.008 µg/mL | ~1 µg/mL
6 | B6 | – | – | – | – | ~0.008 µg/mL | ~1 µg/mL
7 | B7 | – | – | – | – | ~0.008 µg/mL | ~1 µg/mL
